In patent US20140087995A1 (published 2014):
Numbered stars: 1 amine (or outer) side, 2 acyl side, 3 side chain; on linkers, the order of the positions; unused ones are H or OH. Bridge positions count the residues as written; N and C are the ends. Square brackets hold non-standard residues; d marks the D form. Side chains are listed from the residue outwards. Ends that are not written are not given here. * marks the point of attachment. C20 diacid = O=C(O)CCCCCCCCCCCCCCCCCCC(=O)*; γGlu = O=C(O)[C@H](CCC(=O)[*:2])N[*:1]

T1: human amylin receptor (amylin 3(a) receptor: human calcitonin receptor co-expressed with RAMP-3) (human, UniProt P30988 25-474; O60896 24-148, limits assumed)
T1 construct: whole, on cells; Used as cell membranes prepared from the Amylin 3(a)/CRE-luc BHK cells (Assay V); also called hAmylin-R; hAmylinR
T1 sequence (looked up) 1: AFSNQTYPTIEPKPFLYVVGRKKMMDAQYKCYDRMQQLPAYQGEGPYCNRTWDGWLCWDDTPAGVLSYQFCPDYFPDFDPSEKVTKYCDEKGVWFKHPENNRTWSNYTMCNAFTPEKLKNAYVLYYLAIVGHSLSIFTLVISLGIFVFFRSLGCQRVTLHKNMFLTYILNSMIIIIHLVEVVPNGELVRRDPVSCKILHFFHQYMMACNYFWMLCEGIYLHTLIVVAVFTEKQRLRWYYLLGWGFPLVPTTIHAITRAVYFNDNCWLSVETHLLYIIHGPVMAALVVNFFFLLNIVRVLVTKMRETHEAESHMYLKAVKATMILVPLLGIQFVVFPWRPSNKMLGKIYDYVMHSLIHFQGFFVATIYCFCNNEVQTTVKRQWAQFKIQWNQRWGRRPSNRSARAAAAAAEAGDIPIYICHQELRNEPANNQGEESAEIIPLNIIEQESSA
T1 sequence (looked up) 2: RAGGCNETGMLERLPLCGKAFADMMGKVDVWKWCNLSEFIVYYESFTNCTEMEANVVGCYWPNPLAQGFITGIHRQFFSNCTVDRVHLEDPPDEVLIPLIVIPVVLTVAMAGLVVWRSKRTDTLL


Target: T1, human amylin receptor (amylin 3(a) …)
Assay: SPA displacement of 125I-rat amylin, hAmylin 3(a) receptor membranes
Method in brief: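 SPA beads + BHK amylin 3(a)/CRE-luc membranes, 35 ng/μL final; buffer 50 mM Hepes pH 7.4, 1 mM CaCl2, 5 mM MgCl₂, 0.1% OA, 0.02% Tween20. 120 min, 25° C, shaken; scintillation count. IC₅₀ by one-site binding competition fit, taken as receptor affinity.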

IC50 | Binder
0.148 nM | K([γGlu-C20 diacid])CNTATCATQRLAAFLRHSSPNFGAIPSSTNVGPNTY-NH2 (disulfide 2-7; N-terminus assumed; SMILES CC[C@H](C)[C@H](NC(=O)[C@H](C)NC(=O)CNC(=O)[C@H](Cc1ccccc1)NC(=O)[C@H](CC(N)=O)NC(=O)[C@@H]1CCCN1C(=O)[C@H](CO)NC(=O)[C@H](CO)NC(=O)[C@H](Cc1c[nH]cn1)NC(=O)[C@H](CCCNC(=N)N)NC(=O)[C@H](CC(C)C)NC(=O)[C@H](Cc1ccccc1)NC(=O)[C@H](C)NC(=O)[C@H](C)NC(=O)[C@H](CC(C)C)NC(=O)[C@H](CCCNC(=N)N)NC(=O)[C@H](CCC(N)=O)NC(=O)[C@@H](NC(=O)[C@H](C)NC(=O)[C@@H]1CSSC[C@H](NC(=O)[C@@H](N)CCCCNC(=O)CC[C@H](NC(=O)CCCCCCCCCCCCCCCCCCC(=O)O)C(=O)O)C(=O)N[C@@H](CC(N)=O)C(=O)N[C@@H]([C@@H](C)O)C(=O)N[C@@H](C)C(=O)N[C@@H]([C@@H](C)O)C(=O)N1)[C@@H](C)O)C(=O)N1CCC[C@H]1C(=O)N[C@@H](CO)C(=O)N[C@@H](CO)C(=O)N[C@H](C(=O)N[C@@H](CC(N)=O)C(=O)N[C@H](C(=O)NCC(=O)N1CCC[C@H]1C(=O)N[C@@H](CC(N)=O)C(=O)N[C@H](C(=O)N[C@@H](Cc1ccc(O)cc1)C(N)=O)[C@@H](C)O)C(C)C)[C@@H](C)O, also called compound 94)
0.453 nM | K([γGlu-γGlu-C20 diacid])CNTATCATQRLADFLRHSSPNFGAIPSSTNVGPRTY-NH2 (disulfide 2-7, also called compound 130)
0.131 nM | K([γGlu-C20 diacid])CNTATCATQRLAHFLRHSSPNFGAIPSSTNVGPNTP-NH2 (disulfide 2-7; N-terminus assumed; SMILES CC[C@H](C)[C@H](NC(=O)[C@H](C)NC(=O)CNC(=O)[C@H](Cc1ccccc1)NC(=O)[C@H](CC(N)=O)NC(=O)[C@@H]1CCCN1C(=O)[C@H](CO)NC(=O)[C@H](CO)NC(=O)[C@H](Cc1c[nH]cn1)NC(=O)[C@H](CCCNC(=N)N)NC(=O)[C@H](CC(C)C)NC(=O)[C@H](Cc1ccccc1)NC(=O)[C@H](Cc1c[nH]cn1)NC(=O)[C@H](C)NC(=O)[C@H](CC(C)C)NC(=O)[C@H](CCCNC(=N)N)NC(=O)[C@H](CCC(N)=O)NC(=O)[C@@H](NC(=O)[C@H](C)NC(=O)[C@@H]1CSSC[C@H](NC(=O)[C@@H](N)CCCCNC(=O)CC[C@H](NC(=O)CCCCCCCCCCCCCCCCCCC(=O)O)C(=O)O)C(=O)N[C@@H](CC(N)=O)C(=O)N[C@@H]([C@@H](C)O)C(=O)N[C@@H](C)C(=O)N[C@@H]([C@@H](C)O)C(=O)N1)[C@@H](C)O)C(=O)N1CCC[C@H]1C(=O)N[C@@H](CO)C(=O)N[C@@H](CO)C(=O)N[C@H](C(=O)N[C@@H](CC(N)=O)C(=O)N[C@H](C(=O)NCC(=O)N1CCC[C@H]1C(=O)N[C@@H](CC(N)=O)C(=O)N[C@H](C(=O)N1CCC[C@H]1C(N)=O)[C@@H](C)O)C(C)C)[C@@H](C)O)
0.214 nM | K([γGlu-C20 diacid])CNTATCATQRLAEFLRHSSPNFGAIPSSTNVGPNTP-NH2 (disulfide 2-7; N-terminus assumed; SMILES CC[C@H](C)[C@H](NC(=O)[C@H](C)NC(=O)CNC(=O)[C@H](Cc1ccccc1)NC(=O)[C@H](CC(N)=O)NC(=O)[C@@H]1CCCN1C(=O)[C@H](CO)NC(=O)[C@H](CO)NC(=O)[C@H](Cc1c[nH]cn1)NC(=O)[C@H](CCCNC(=N)N)NC(=O)[C@H](CC(C)C)NC(=O)[C@H](Cc1ccccc1)NC(=O)[C@H](CCC(=O)O)NC(=O)[C@H](C)NC(=O)[C@H](CC(C)C)NC(=O)[C@H](CCCNC(=N)N)NC(=O)[C@H](CCC(N)=O)NC(=O)[C@@H](NC(=O)[C@H](C)NC(=O)[C@@H]1CSSC[C@H](NC(=O)[C@@H](N)CCCCNC(=O)CC[C@H](NC(=O)CCCCCCCCCCCCCCCCCCC(=O)O)C(=O)O)C(=O)N[C@@H](CC(N)=O)C(=O)N[C@@H]([C@@H](C)O)C(=O)N[C@@H](C)C(=O)N[C@@H]([C@@H](C)O)C(=O)N1)[C@@H](C)O)C(=O)N1CCC[C@H]1C(=O)N[C@@H](CO)C(=O)N[C@@H](CO)C(=O)N[C@H](C(=O)N[C@@H](CC(N)=O)C(=O)N[C@H](C(=O)NCC(=O)N1CCC[C@H]1C(=O)N[C@@H](CC(N)=O)C(=O)N[C@H](C(=O)N1CCC[C@H]1C(N)=O)[C@@H](C)O)C(C)C)[C@@H](C)O)
0.365 nM | K([γGlu-γGlu-C20 diacid])CNTATCATQRLA[dD]FLRHSSPNFGAIPSSTNVGSRTY-NH2 (disulfide 2-7; N-terminus assumed; SMILES CC[C@H](C)[C@H](NC(=O)[C@H](C)NC(=O)CNC(=O)[C@H](Cc1ccccc1)NC(=O)[C@H](CC(N)=O)NC(=O)[C@@H]1CCCN1C(=O)[C@H](CO)NC(=O)[C@H](CO)NC(=O)[C@H](Cc1c[nH]cn1)NC(=O)[C@H](CCCNC(=N)N)NC(=O)[C@H](CC(C)C)NC(=O)[C@H](Cc1ccccc1)NC(=O)[C@@H](CC(=O)O)NC(=O)[C@H](C)NC(=O)[C@H](CC(C)C)NC(=O)[C@H](CCCNC(=N)N)NC(=O)[C@H](CCC(N)=O)NC(=O)[C@@H](NC(=O)[C@H](C)NC(=O)[C@@H]1CSSC[C@H](NC(=O)[C@@H](N)CCCCNC(=O)CC[C@H](NC(=O)CC[C@H](NC(=O)CCCCCCCCCCCCCCCCCCC(=O)O)C(=O)O)C(=O)O)C(=O)N[C@@H](CC(N)=O)C(=O)N[C@@H]([C@@H](C)O)C(=O)N[C@@H](C)C(=O)N[C@@H]([C@@H](C)O)C(=O)N1)[C@@H](C)O)C(=O)N1CCC[C@H]1C(=O)N[C@@H](CO)C(=O)N[C@@H](CO)C(=O)N[C@H](C(=O)N[C@@H](CC(N)=O)C(=O)N[C@H](C(=O)NCC(=O)N[C@@H](CO)C(=O)N[C@@H](CCCNC(=N)N)C(=O)N[C@H](C(=O)N[C@@H](Cc1ccc(O)cc1)C(N)=O)[C@@H](C)O)C(C)C)[C@@H](C)O)
0.533 nM | K([γGlu-γGlu-C20 diacid])CNTATCATQRLAEFLRHSSPNFGAIPSSTNVGPETP-NH2 (disulfide 2-7; N-terminus assumed; SMILES CC[C@H](C)[C@H](NC(=O)[C@H](C)NC(=O)CNC(=O)[C@H](Cc1ccccc1)NC(=O)[C@H](CC(N)=O)NC(=O)[C@@H]1CCCN1C(=O)[C@H](CO)NC(=O)[C@H](CO)NC(=O)[C@H](Cc1c[nH]cn1)NC(=O)[C@H](CCCNC(=N)N)NC(=O)[C@H](CC(C)C)NC(=O)[C@H](Cc1ccccc1)NC(=O)[C@H](CCC(=O)O)NC(=O)[C@H](C)NC(=O)[C@H](CC(C)C)NC(=O)[C@H](CCCNC(=N)N)NC(=O)[C@H](CCC(N)=O)NC(=O)[C@@H](NC(=O)[C@H](C)NC(=O)[C@@H]1CSSC[C@H](NC(=O)[C@@H](N)CCCCNC(=O)CC[C@H](NC(=O)CC[C@H](NC(=O)CCCCCCCCCCCCCCCCCCC(=O)O)C(=O)O)C(=O)O)C(=O)N[C@@H](CC(N)=O)C(=O)N[C@@H]([C@@H](C)O)C(=O)N[C@@H](C)C(=O)N[C@@H]([C@@H](C)O)C(=O)N1)[C@@H](C)O)C(=O)N1CCC[C@H]1C(=O)N[C@@H](CO)C(=O)N[C@@H](CO)C(=O)N[C@H](C(=O)N[C@@H](CC(N)=O)C(=O)N[C@H](C(=O)NCC(=O)N1CCC[C@H]1C(=O)N[C@@H](CCC(=O)O)C(=O)N[C@H](C(=O)N1CCC[C@H]1C(N)=O)[C@@H](C)O)C(C)C)[C@@H](C)O)
0.377 nM | K([γGlu-γGlu-C20 diacid])CNTATCATQRLAEFLRHSSPNFGAIPSSTNVGPHTY-NH2 (disulfide 2-7 (inferred))
0.281 nM | K([γGlu-C20 diacid])CNTATCATQRLADFLRHSSPNFGAIPSSTNVGPRTY-NH2 (disulfide 2-7; N-terminus assumed; SMILES CC[C@H](C)[C@H](NC(=O)[C@H](C)NC(=O)CNC(=O)[C@H](Cc1ccccc1)NC(=O)[C@H](CC(N)=O)NC(=O)[C@@H]1CCCN1C(=O)[C@H](CO)NC(=O)[C@H](CO)NC(=O)[C@H](Cc1c[nH]cn1)NC(=O)[C@H](CCCNC(=N)N)NC(=O)[C@H](CC(C)C)NC(=O)[C@H](Cc1ccccc1)NC(=O)[C@H](CC(=O)O)NC(=O)[C@H](C)NC(=O)[C@H](CC(C)C)NC(=O)[C@H](CCCNC(=N)N)NC(=O)[C@H](CCC(N)=O)NC(=O)[C@@H](NC(=O)[C@H](C)NC(=O)[C@@H]1CSSC[C@H](NC(=O)[C@@H](N)CCCCNC(=O)CC[C@H](NC(=O)CCCCCCCCCCCCCCCCCCC(=O)O)C(=O)O)C(=O)N[C@@H](CC(N)=O)C(=O)N[C@@H]([C@@H](C)O)C(=O)N[C@@H](C)C(=O)N[C@@H]([C@@H](C)O)C(=O)N1)[C@@H](C)O)C(=O)N1CCC[C@H]1C(=O)N[C@@H](CO)C(=O)N[C@@H](CO)C(=O)N[C@H](C(=O)N[C@@H](CC(N)=O)C(=O)N[C@H](C(=O)NCC(=O)N1CCC[C@H]1C(=O)N[C@@H](CCCNC(=N)N)C(=O)N[C@H](C(=O)N[C@@H](Cc1ccc(O)cc1)C(N)=O)[C@@H](C)O)C(C)C)[C@@H](C)O)
